Assay results: article PMC4841080

Experiments:
Details in all cases: glycan lost; control: wild type
[1] = Western blot of cell lysates
[2] = Western blot of Ni-NTA-concentrated conditioned medium
[3] = Immunofluorescence co-staining with Golgi marker GRASP65

B1: R-spondin1 (RSPO1): N137Q (protein)
parent chain: MRLGLCVVALVLSWTHLTISSRGIKGKRQRRISAEGSQACAKGCELCSEVNGCLKCSPKLFILLERNDIRQVGVCLPSCPPGYFDARNPDMNKCIKCKIEHCEACFSHNFCTKCKEGLYLHKGRCYPACPEGSSAANGTMECSSPAQCEMSEWSPWGPCSKKQQLCGFRRGSEERTRRVLHAPVGDHAACSDTKETRRCTVRRVPCPEGQKRRKGGQGRRENANRNLARKESKEAGAGSRRRKGQQQQQQQGTVGPLTSAGPA
With B1 the expression_or_secretion [1] was “increases”, the expression_or_secretion [2] was “increases” and the localisation_or_trafficking [3] was “no change”.
